Test results as given in patent publication US20150147337A1 (Merck Sharp & Dohme, published 2015).
Several values for one entry are separate records, joined by “and”; a condition that tells them apart may be missing. Equal values may be shown once.

Molecular target: T1, Human IL-23 (human, UniProt P29460 23-328)
T1 construct: also called huIL-23
T1 sequence 1: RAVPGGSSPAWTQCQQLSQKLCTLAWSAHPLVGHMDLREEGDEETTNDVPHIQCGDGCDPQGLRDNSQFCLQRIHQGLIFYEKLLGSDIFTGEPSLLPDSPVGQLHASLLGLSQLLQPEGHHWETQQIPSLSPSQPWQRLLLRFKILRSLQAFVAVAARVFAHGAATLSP
T1 sequence 2: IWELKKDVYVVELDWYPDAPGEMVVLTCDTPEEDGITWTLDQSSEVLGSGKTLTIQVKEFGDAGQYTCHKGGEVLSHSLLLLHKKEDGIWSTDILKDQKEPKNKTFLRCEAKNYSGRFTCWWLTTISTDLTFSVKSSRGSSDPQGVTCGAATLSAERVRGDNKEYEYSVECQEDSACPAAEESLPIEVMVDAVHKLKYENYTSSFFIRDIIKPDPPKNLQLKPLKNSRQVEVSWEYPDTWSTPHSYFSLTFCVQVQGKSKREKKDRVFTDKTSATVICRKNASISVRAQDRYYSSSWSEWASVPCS
Assay: ELISA, human IL-23 immobilized on plate, HRP anti-IgG detection, four-parameter fit
Description: Re-dissolved crystalline anti-huIL-23p19 mAb 13B8-b was also compared to the original solution antibody by ELISA. Two different lots of each of solution and re-dissolved crystalline anti-huIL-23p19 mAb 13B8-b were tested for their ability to bind to IL-23. Human IL-23 was immobilized onto an ELISA plate, and serial dilutions of anti-huIL-23p19 mAb 13B8-b (solution or re-dissolved crystalline) were added to the wells. After the plates were washed, bound antibody was detected using an HRP-labeled anti-IgG antibody and a colorimetric substrate. Plates were read in a plate reader and the dose response curves were analyzed using a four-parameter logistic fit. At equilibrium, the EC50 of a saturation binding curve reflects the equilibrium binding dissociation constant (KD), where a higher value represents lower affinity, and a lower value represents higher affinity, of the antibody for the ligand. The potency of the test sample is assessed by comparing binding curves of the test samples to a reference material by the ratio of the EC50's. Potency is expressed as percent of reference material, in this case, selected to be lot #1 of the solution form of anti-huIL-23p19 mAb 13B8-b.

EC50: 0.071 nM and 0.106 nM and 0.073 nM and 0.116 nM
B1: humanized anti-human IL-23p19 monoclonal antibody 13B8-b (antibody, human IgG1, kappa, V domains shown)
VH: QVQLVQSGAEVKKPGASVKVSCKASGYIFITYWMTWVRQAPGQGLEWMGQIFPASGSADYNEKFEGRVTMTTDTSTSTAYMELRSLRSDDTAVYYCARGGGGFAYWGQGTLVTVSS
VL: DIQMTQSPSSLSASVGDRVTITCRTSENIYSYLAWYQQKPGKAPKLLIYNAKTLAEGVPSRFSGSGSGTDFTLTISSLQPEDFATYYCQHHYGIPFTFGQGTKVEIKR
notes: Full-length IgG1 kappa; It was tested as never-crystallized solution material (two lots) and as antibody re-dissolved from crystals (two lots); also called anti-huIL-23p19 mAb 13B8-b; hu13B8-b
